The record followed here is the supplement of paper PMC9732359.

± gives the uncertainty stated by the source.

The data set in a line: protein stability index of a GFP-peptide fusion (yeast GPS) (PSI 1-4); higher = more stable; sorted into four equal gates, so the index is relative within each strain. Summed up:
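Tiled 17-residue yeast protein peptides were fused downstream of GFP in a plasmid that also expresses Cherry, and the pooled library was carried in yeast. Mid-log cultures in leucine-free medium were sorted into four equal gates by GFP/Cherry fluorescence ratio, and plasmids from each gate were PCR-amplified and Illumina-sequenced, with reads assigned to strains by barcodes. The protein stability index for each peptide was each gate's read frequency times its gate number, summed.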

For the sequence LINIDTSIANAFRRIMI [RPC40], the protein stability index is, setting by setting: (doa10∆) 2.28 ± 0.043; (pdr5∆) 2.83 ± 0.054; (san1∆) 3.14 ± 0.046; (ubr1∆) 2.89 ± 0.049.

On to LINLAKTRVGSVTAQVY [RPC82], for which the protein stability index by setting is: (doa10∆) 2.41 ± 0.096; (pdr5∆) 1.66 ± 0.065; (san1∆) 1.16 ± 0.18; (ubr1∆) 1.45 ± 0.11.

Consider LIQDLLHRLTPKNVKGE [RPN1], for which the protein stability index by setting is: (doa10∆) 3.44 ± 0.25; (pdr5∆) 3.27 ± 0.11; (san1∆) 3.51 ± 0.21; (ubr1∆) 3.01 ± 0.14.

On to LIQKLQNSANNNSDDED [IRR1], for which the protein stability index is 2.98 ± 0.1 (doa10∆), 3.08 ± 0.074 (pdr5∆), 3.26 ± 0.05 (san1∆) and 3.38 ± 0.083 (ubr1∆).

For the sequence LIQLGVKPLESSAKRSK [SRP72], the protein stability index is, setting by setting: (doa10∆) 3.11 ± 0.073; (pdr5∆) 2.97 ± 0.11; (san1∆) 2.56 ± 0.12; (ubr1∆) 2.88 ± 0.045.

LIQSYSLLDKPDEAIEK [FAS1]: the protein stability index reads like this: (doa10∆) 2.82 ± 0.087; (pdr5∆) 2.75 ± 0.084; (san1∆) 2.14 ± 0.087; (ubr1∆) 2.79 ± 0.082.

LIVRAKNHTHNLPGNIT [RRP4]: the protein stability index is, setting by setting: (doa10∆) 2.77 ± 0.071; (pdr5∆) 2.96 ± 0.049; (san1∆) 2.89 ± 0.066; (ubr1∆) 2.94 ± 0.052.

In the case of LKCAERQLTSMEFSNLY [NUT1], the protein stability index was found to be 2.06 ± 0.054 (doa10∆), 1.87 ± 0.034 (pdr5∆), 1.65 ± 0.072 (san1∆) and 2.17 ± 0.032 (ubr1∆).

On to LKEPVEDIIKRTSPIDN [NUT2], for which the protein stability index (doa10∆) stood at 2.97 ± 0.083, the protein stability index (pdr5∆) stood at 3.09 ± 0.1, the protein stability index (san1∆) was 2.64 ± 0.1 and the protein stability index (ubr1∆) was found to be 3.2 ± 0.061.

LKHVLQLIFRQQTGLVD [SNU114]: the protein stability index was 1.23 ± 0.075 (doa10∆), 1.58 ± 0.076 (pdr5∆), 1.68 ± 0.12 (san1∆) and 1.2 ± 0.049 (ubr1∆).

In the case of LKIQFILSTTLDPTDDE [SIN4], the protein stability index was determined as 2.04 ± 0.1 (doa10∆), 2.33 ± 0.081 (pdr5∆), 2.12 ± 0.067 (san1∆) and 2.81 ± 0.099 (ubr1∆).

As for LKIYKVGDIVDIKANGS [RPL21B], the protein stability index (doa10∆) worked out at 2.18 ± 0.058, the protein stability index (pdr5∆) is 1.88 ± 0.05, the protein stability index (san1∆) worked out at 1.83 ± 0.062 and the protein stability index (ubr1∆) is 2.08 ± 0.03.

For LKKDIESLRGILHVRAQ [SRP72], the protein stability index (doa10∆) worked out at 1.9 ± 0.1, the protein stability index (pdr5∆) worked out at 2.39 ± 0.12, the protein stability index (san1∆) was 2.11 ± 0.22 and the protein stability index (ubr1∆) is 2.07 ± 0.062.

LKKFRESLVHSALCILK [BRR2]: the protein stability index worked out at 3.21 ± 0.12 (doa10∆), 2.1 ± 0.073 (pdr5∆), 2.86 ± 0.078 (san1∆) and 2.97 ± 0.066 (ubr1∆).

On to LKKGEQKTQELNAKYQS [ISW2], for which the protein stability index reads like this: (doa10∆) 3.31 ± 0.063; (pdr5∆) 3.22 ± 0.047; (san1∆) 3.29 ± 0.039; (ubr1∆) 3.29 ± 0.055.

In the case of LKKIRAHRGIRHFWGLR [RPS18A], the protein stability index was 3.03 ± 0.11 (doa10∆), 2.74 ± 0.078 (pdr5∆), 2.44 ± 0.079 (san1∆) and 2.62 ± 0.05 (ubr1∆).

In turn, LKKQLHVSHEAMREVND [YIL149C/MLP2] came in with a protein stability index (doa10∆) of 2.77 ± 0.066, a protein stability index (pdr5∆) of 2.24 ± 0.058, a protein stability index (san1∆) of 2.91 ± 0.07 and a protein stability index (ubr1∆) of 2.85 ± 0.076.

LKLCVQELEKRMPMDFK [PRE1]: the protein stability index reads like this: (doa10∆) 3.15 ± 0.19; (pdr5∆) 3.34 ± 0.099; (san1∆) 3.18 ± 0.054; (ubr1∆) 3.37 ± 0.085.

For LKMMKLIVDTHVQFRLG [PRP8], the protein stability index was 2.53 ± 0.08 (doa10∆), 2.21 ± 0.075 (pdr5∆), 2.56 ± 0.059 (san1∆) and 1.93 ± 0.048 (ubr1∆).
